From a protein production outcome set (Wang et al. 2014) come the findings set out here.

This data set in a line: label from the status in PepcDB records.
On to “MSNTTRQAGSQGSLDAFFKITQRGSNVRQEVLAGLTTFLAMVYSVIVVPSMLGKAGFPPTAVFVATCLVAGLGSLLMGLWANLPMAIGCAISLTAFTAFSLVLGQQISIPVALGAIFLMGVLFTIISVTGIRSWILRNLPLGVAHGTGIGIGLFLLIIAANGVGLVVKNPIDGLPVALGNFTSFPVIMSLLGLAATIGLEKRRVPGGILLVIVVISILGLIFDPNVKYAGFFALPSLTAADGSSLIFSLDIMGALQPLVLPSVLALVMTAVFDATGTIRAVAGQANLLDKDGQIINGGKALTADSVSSIFCSLVGTSPAAVYIESAAGTAAGGKTGLTATVVGVLFLLLLFVSPLAYLVPGYATAPALMYVGLLMLGNVSKLNFDDFVDAMSGLVCAVFIVLTCNIVTGIMLGFGALVLGRICSGEWRKLNIGTVIIAVALVAFYAGGWAL”, for which the protein production entry was “failed”. As for “MSNVRVLATDLAFPEGPVVMPDGSVVLVEIRAQQLTRVWPDGRKEVVAKVPGGPNGAALGPDGKMYICNNGGFGWFPSRGTMMPGAPAPHEYIGGSIQRVDLQSGEVETLFDKCGEHPLKGPNDLVFDKHGGLWFTDLGKRRARDMDVGAAYYIKPGMTEITEQVFGTLPLNGIGLSPDEATMYAAETPTGRLWAFDLSGPGEVKPRDVIYRGEKGKPICGLGGYQMFDSLAVEASGNVCVATLVSGCISVIAPDGTLVEQVPTGDRVTTNIAFGGPDLKTAYITLSGKGELIAMDWSRPGLPLNFLNK”, the entry is “failed”.

Turning to “MSNYEKVYIGTYTNGESRGIYSFNIISDSRKTTAPILSCEIENPTYLTFNMNNKTAYSVIKSGNLGGAASFYVDDRNNHLELLNCKFGYENPPERFSGKQPCYVSLDKTNSYLFSVNYHTSRVDVFPIRNDGSIDTVSSFVIHEGFGPNKERQETSHVHCAVTTPLNDFLCVVDLGTDKIVLYRFDDGILCRFNEFKLKPGCGPRHIIFHPNGKIAYIATELSSEVIVLKYSPLDGSFEELQYVSCLPTDYTGKNGSAAIHISRNSNYLYVSNRGHNSISCFHVDNSTGLLTLNSNTSTYGLSPRDFDLSSSGNLLIAANQDSSNLTIFSVDQVSGNLSKITSDIYVPNPVCVKFYHDKLEHHHHHH”, the protein production entry is given as “failed”.

Turning to “MSPEAKEAQDSRRNEMPEKKRAVLRKAIKLEWATIAWVLFSIVLVGVVAGQSQAMRSAWIEDMLSLVPPIAFLLASRISKAVATRKHPYGKHRSIAIGHQAAALALLIMGSLLIYEAVSALIKGERPPIGLAILFGHDVWSGWLMIGVMISVSIPMVIVGRVKINLAKDLHDKLLYADADMAKADWGTAVASTVGVLGIGLGFWWADAVAALVISASILRDGVINMKAAISDLGDGRAMTYDNSAPHPLNDDVEKAALEMHWVKHARARIRDQGRCFHTELFVEPVEGYTPAPEEITSLVKRIQNLDWKLQDVVASVVEKIDRFQAPS”, the protein production entry is “failed”.

In the case of “MSPFDTPRRLVAEALGTALLLAVVVGSGIMGERLSDGNIAIALLGNTLATGAALVVLIWVFGPISGAHFNPAVTLVAALRRELPLTLALAYPLAQILGGIAGVWTAHAMFGEPILQVSTKLRSGGDQAFAEVVATFGLLATILGVSRFRPESTPMAVGLYITAAYWFTASTSFANPAVTVARSLSDSFAGIAPASAPAFILAQLVGALSAAALFGWLLKTDTSR”, the protein production entry is reported as “failed”. As for “MSPFTGSAAPTPEWRHLRVEITDGVATVTLARPDKLNALTFEAYADLRDLLAELSRRRAVRALVLAGEGRGFCSGGDVDEIIGATLSMDTARLLDFNRMTGQVVRAVRECPFPVIAALHGVAAGAGAVLALAADFRVADPSTRFAFLFTRVGLSGGDMGAAYLLPRVVGLGHATRLLMLGDTVRAPEAERIGLISELTEEGRADEAARTLARRLADGPALAHAQTKALLTAELDMPLAAAVELDASTQALLMTGEDYAEFHAAFTEKRPPKWQGR”, the entry is “not failed”. As for “MSPPPAPNPIRDSLIARADALREGGAPAEARDLYRLVLDRHPGHGPALAGLGRILLGLGQPTAALESLGAAVAADPTRLDWLADLAVALAGARRPAEALSAAEGLPATAGALGFRADRLEELGRRDQAIALLDDALRRHPDEAELHRRQGVLLRRAGRAAQAIAPWRALVALRPGDAAAWSSLGAGLGESGLDEEAEKALRRAVALAADEPDWTYNLAHFLIERDRLEDALPLLDAAVARAPERAHYHTNLGVCRLGLGDIKGAIAAHRQALALDPDEPEARYDLAWALLLAGAWEEGWAAHEARWRMGRFTGRRAAGPAPTDWPMPLWDGQPLGPGRTLLLHAEQGFGDSLMMSRLIIPALARAGDAQGIIECPPSLVGLLAQSLGPALGPAVRVVAQAESPPAADAHLPLMSLPHRLGVDSETIPGPDRWLRAEPAPRPPSSPPRVGLVWAGDPGNRMDRLRSCPATALRPLFDRVKDAGLDIAWTGLQLGPPAADLPDLPAALAPGGDFAATARVVAALDLVIGVDTAVIHLAGGLGVETWVMLAYVPDYRWMMDRDDSPWYPSARLFRQSRRGDWRGVIAQVAAALTKRFG”, the entry is “failed”; as for “MSPVVIAVVGVVVLLVLLALVVVSRYKVAGPSEAFIVTGRRGKRSTDPETGRVFTDNSGQKVVVGGGVFVVPFVQQRFTLDLSSRHIPVAVRGAVTLRGVKANLEGVAIVKVGGTEDAIRAAAQRFLMQQDGIVGFTQEVLSGALRAIVGRMSVEDVIRDRAAFAGQVAEEAEASLSGQGLVLDAFQIQDITTEGSYLEDLGRPEAARAKQEADIAEAVARRAAEQARLKAEEEIAVAQRTLYLKQAEIKAETDQAEARANASGPLAEAARQQDILAEQEKVAERQAALKDRQLDTEVRKPADAQRYAAEQEAEARRVARVKQAEAERAAGIAAAQAEAERARLTGEGEKQRRSALADAVRLEGDAEAAAIGAKGAAEAEAMEKKADAFDRYGDAAVLQMLVEVLPQVVAKASEPLAAVDKMTVISTDGASRLTRTVADNVAQGMELLGSTTGVDLTSLLKGITAKEGITAKGEAGRATTENGKVEITDLEHHHHHH”, “not failed”; as for “MSQAISLNQSTWASKLKAMGPGILMATAAVGGSHIVSSTQAGGSYGWSLLLLVILANVFKYPFFRFGAEYTADTGKTLVEGYAEKGKLYLWIFFILNVFSAMVNTAGVAILCSAIIASAFPMIGLSITQWSLILVAIIWAMLLFGGYKLLDGMVKWIMSALTIATVLAVIIAAVKHPEYSSDFVEKTPWQMAALPFIVSLLGWMPAPIEISAINSLWSAEKRKTVNFNTEDALFDFNTGYIGTAILAVFFVALGALIQYPTGQAVEAASAKYISQFVGMYASVLGEWSRYLITFIAFLCIFGTVITVIDGYSRVNQESLRLLISQKEDNRKSLNIWMTITAIIGIVIIKFFAGQVSTMLRFAMIGSFLTTPFFALLNYALVTRENKNLPSWLKHLAIAGLIFLFGFAIFFIYALAIGKAG”, “failed”. As for “MSQATAKVNREVQAFLQDLKGKTIDHVFFVACGGSSAIMYPSKYVFDRESKSINSDLYSANEFIQRNPVQLGEKSLVILCSHSGNTPETVKAAAFARGKGALTIAMTFKPESPLAQEAQYVAQYDWGDEALAINTNYGVLYQIVFGTLQVLENNTKFEQAIEGLDQLQAVYEKALKQEADNAKQFAKAHEKESIIYTMASGANYGVAYSYSICILMEMQWIHSHAIHAGEYFHGPFEIIDESVPFIILLGLDETRPLEERALTFSKKYGKKLTVLDAASYDFTAIDDSVKGYLAPLVLNRVLRSYADELAEERNHPLSHRRYMWKVEY”, the entry is “not failed”; as for “MSQAVLATETNRRQLQQIISGLSDGVILIETDKARTLLWANEAALAMHGVSTVEQLGGNLREYARRYALRYRNNHPLGLDSYPINRVAAGETFSDVVVEVQAEIDGEPRHWVHRVRSMILEDRNGAPESLVLILSDATDWASAEQRFEKTFNANPAPAVICRLGDLRYIKVNQGFLEMTGYARDQVIGRSVYELDVLEDAEHKELAVERLGQGATIPQMQAELRLPEGGSKLVIVAGQPLDINDEDCMLFSFMDLEPRRKAEIALRQSEERFAKSFRLTPVPTLVCSAEQQIVDVNEAFLDTCGYSSEELLGKTVQDIGFIAEPQAAEQLFGRLEKSGNVMGLDLKVRKKGAEQVDCVAYADTVLIQDSPCYLLVLMDISERKRSELELVGAIEEVMRDASWFSQTLIEKLANVRNTRSAQAPAVTSAELTTREREVLGLIYQGLADKEIAAQLQLAPNTVRNHVATLYSKLDVHSRGEAIVWARERGLFAGSAG”, “failed”; as for “MSQEYTEDKDVTLTKLSSGRRLLEALLILIALFAVWLMAALLSFNPSDPSWSQTAWHEPIHNLGGAPGAWLADTLFFIFGVMAYTIPVIIVGGCWFAWRHQSTDDYIDYFAVSLRLIGVLALILTSCGLAAINADDIWYFASGGVIGSLLSTTLQPLLHSSGGTIMLLCIWAAGLTLFTGWSWVSIAEKLGGWLLNILTFASNRTRRDDTWVDDEEYDDEYDEETDGVQRESRRARILRGALARRKRLAEKFSNPRGRQTDAALFSGKRMDDDEDIQYSARGVAADPDDVLFSGNRATQPEYDEYDPLLNGHSVTEPVAAAAAATAVTQTWAASADPIMQTPPMPGAEPVVAQPTVEWQPVPGPQTGEPVIAPAPEGYQPHPQYAQPQEAQSAPWQQPVPVASAPQYAATPATAAEYDSLAPQETQPQWQAPDAEQHWQPEPTHQPEPIAAEPSHMPPPVIEQPVTTEPEPGIEETRPARPPLYYFEEVEEKRAREREQLAAWYQPIPEPVKENVPVKPTVSVAPSIPPVEAVAAAASLDAGIKSGALAAGAAAAAPAFSLATGGAPRPQVKEGIGPQLPRPNRVRVPTRRELASYGIKLPSQRIAEEKAREAERNQYETGVQLTDEEIDAMHQDELARQFAQSQQHRYGETYQHDTQQAEDDDTAAEAELARQFAASQQQRYSGEQPAGAQPFSLDDLDFSPMKVLVDEGPHEPLFTPGVMPESTPVQQPVAPQPQPQYQQSQQPVAPQSQYQQPQQPVAPQPQPQYQQSQQPVAPQSQYQQPQQPVAPQPQYQQPQQPVAPQPQYQQPQQPTAPQPQYQQPVAPQPQYQQPQQPVAPQPQYQQPQQPTAPQDSLIHPLLMRNGDSRPLQRPTTPLPSLDLLTPPPSEVEPVDTFALEQMARLVEARLADFRIKADVVNYSPGPVITRFELNLAPGVKAARISNLSRDLARSLSTVAVRVVEVIPGKPYVGLELPNKKRQTVYLREVLDNAKFRENPSPLTVVLGKDIAGDPVVADLAKMPHLLVAGTTGSGKSVGVNAMILSMLYKAQPEDVRFIMIDPKMLELSVYEGIPHLLTEVVTDMKDAANALRWSVNEMERRYKLMSALGVRNLAGYNEKIAEAARMGRPIPDPYWKPGDSMDVQHPVLEKLPYIVVLVDEFADLMMTVGKKVEELIARLAQKARAAGIHLVLATQRPSVDVITGLIKANIPTRIAFTVSSKIDSRTILDQGGAESLLGMGDMLYSGPNSTMPVRVHGAFVRDQEVHAVVQDWKARGRPQYVDGITSDSESEGGGGGFDGGEELDALFDQAVNFVTQKRKASISGVQRQFRIGYNRAARIIEQMEAQGIVSAQGHNGNREVLAPPPFE”, “failed”.

For “MSQKGEAEGIARIRSAALFYIVAILITLVAVFAVFIPLIVSISSISSNLSNPNASSASAAAGGILSAVIGVIVVAVIVSIVILVFIILSFLRFRDGFSILQAIGRDVGIGKTGTTLILVGAILLIIPFLDIIGIILIFVGQILLGIGIYRIGEIYNNSLTKIGGILVAIPLIDITAFIGMIMTYVGVGQIQREFGMRPPLPPSSQIPSQQTGSGVLRGNGTADLNIYLQTQEQVVSAQILGTNYLTGLIVPNMLQPGFNNLTVNFNVPLNLMPNSIYVIRLNLASGRTLDVNVTFQP”, the protein production result is “failed”.

For the sequence “MSQLPAWPRITRESTAMYHLRVPQTEEELERYYQFRWEMLRKPLHQPKESERDGWDALAHHQIVVDEEGNLVAVGRLYINADNEASIRFMAVHPSVQDKGLGTLMAMTLESVARQEGVKRVTCSAREDAVEFFAKLGFVNQGEITTPTTTPIRHFLMIKPVASLDDILHRGDWCGQLQQAWYEHIPLSEKMGVRIQQYTGQKFITTMPETGNQNPHHTVFAGSLFSLATLTGWGLIWLMLRERHLGGTIILADAHIRYSKPISGKPNAVADLGSLSGDLDRLARGKKARVQLQVELLGGETAGAIFEGIYIVLPAKPFGPYEEGGNEEE”, the protein production entry was “failed”.
